Measurements published in the RNAGym collection of RNA variant scans (doi:10.7554/elife.80360).

B1: Hairpin Ribozyme (parent)
chain: GUCCUCUUUCACGUGCGCGUGAAAGAGAGAAGUGAACCAGAGAAACACACGUUGUGGUAUAUUACCUGGUA

Variants of: B1
Test: self-cleavage, relative activity (ratio to wild type); higher = more cleavage; co-transcriptional

Row | Variant | self-cleavage
1 | GUCCUCUUUCACGUGCGCGUGAAAGAGAGAAGUGAACCAGAGAAACACACGUUGUGGUAUAUUACUUUGUA [C66U G68U] | 0.334
2 | GUCCUCUUUCAUGUGCGCGUGAAAGAGAGAAGUGAACGAGAGAAACACACGUUGUGGUAUAUUACCUGGUA [C12U C38G] | 0.235
3 | GUCCUCUUUCACGUGCGCGUGAAAGAGAGAAGUGAACCAGAGAAACACGCGUUGUGGUAGAUUACCUGGUA [A49G U60G] | 0.547
4 | GUCCUCUUUCACGUGCGCGUGAAUGAGAGAAGUGGACCAGAGAAACACACGUUGUGGUAUAUUACCUGGUA [A24U A35G] | 0.751
5 | GUCCUCUUUCACCUGCGCGUGAAAGUGAGAAGUGAACCAGAGAAACACACGUUGUGGUAUAUUACCUGGUA [G13C A26U] | 0.406
6 | GUCCUCUUUGACGUGCGCGUGAAAGAGAGAAGUGAACCAGAGAAACACACGUUGUGGAAUAUUACCUGGUA [C10G U58A] | 0.591
7 | GUCCUCUUUCACGUGCGCGUGAAAGAGAGAAGUGAACCAGAGAAACACACGUUGUGGUAUAUUACGUGGGA [C66G U70G] | 0.2
8 | GUCCUCUUUCACGUGCGCGUGAAAGAGAGAAGUGACCCAGAGAAACACACGUUGCGGUAUAUUACCUGGUA [A36C U55C] | 0.0703
9 | GUCCUAUUUCACGUGCGCGUGAAAGAGAGAAGUGAACCAGAGAAACACACGUUGGGGUAUAUUACCUGGUA [C6A U55G] | 0.14
10 | GUCCUCUUUCACGUGCGCGUGAAAGAGAGAAGUGUACCAGAGAAACACACGUUGUGGUUUAUUACCUGGUA [A35U A59U] | 0.117
11 | GCCCUCUUUCACGUGCGCGUCAAAGAGAGAAGUGAACCAGAGAAACACACGUUGUGGUAUAUUACCUGGUA [U2C G21C] | 0.213
12 | GUCCUCUUUCACGUGCGCGUGAAAGAGAGAAGUGAACCAGAGACACACACGUUGUGGUAUAUUACCUGGGA [A44C U70G] | 0
13 | GUCCUCUUUCACGUGCGCGUGAAAGAGAGAAGUGAACCAGAGAAACACACGUUGUGGUAUAUUAAGUGGUA [C65A C66G] | 0.0953
14 | GUCAUCUUUCACGUGCGCGUGAAAGAGAGAAGUGAACCAGAGCAACACACGUUGUGGUAUAUUACCUGGUA [C4A A43C] | 0.0588
15 | GUCGUCUUUCAGGUGCGCGUGAAAGAGAGAAGUGAACCAGAGAAACACACGUUGUGGUAUAUUACCUGGUA [C4G C12G] | 0.216
16 | GUCCUCUUUCACCUGCGCGUGGAAGAGAGAAGUGAACCAGAGAAACACACGUUGUGGUAUAUUACCUGGUA [G13C A22G] | 0.496
17 | GUCCUCUUUCACGUGCGCGUGAAAGAGAGAAGUGAACCUGAGAAACACACGUUGUGGUAUAUUACCCGGUA [A39U U67C] | 0.286
18 | GUCCGCUUUCCCGUGCGCGUGAAAGAGAGAAGUGAACCAGAGAAACACACGUUGUGGUAUAUUACCUGGUA [U5G A11C] | 0.175
19 | GUCCUCUUUCACGUGCGCGUGAAAGAGAGAAGCGAACCAGAGAAACACACGUUGUGGUAUAUUACUUGGUA [U33C C66U] | 0.149

Row | Variant | self-cleavage
20 | GUCUUCUUUCACGUGCGCGUGAAAGAGAGAAGUGAACGAGAGAAACACACGUUGUGGUAUAUUACCUGGUA [C4U C38G] | 0.0751
21 | GUCCUCUUUCACGUGCGCGUGAAAGAGACGAGUGAACCAGAGAAACACACGUUGUGGUAUAUUACCUGGUA [G29C A30G] | 0.218
22 | GUCCUCUUUCACGUGCGCGUGAAAGAGAGAAGUGAACAAGAGAAACACACGUUGAGGUAUAUUACCUGGUA [C38A U55A] | 0.133
23 | GUCCUCUUUCACGUGCGCGUGAAAGAGAGAAGUAAACCAGAGGAACACACGUUGUGGUAUAUUACCUGGUA [G34A A43G] | 0.0724
24 | GUUCUCUUUCACGUGCGUGUGAAAGAGAGAAGUGAACCAGAGAAACACACGUUGUGGUAUAUUACCUGGUA [C3U C18U] | 0.487
25 | GUCCUAUUUCACGUGCGCGUCAAAGAGAGAAGUGAACCAGAGAAACACACGUUGUGGUAUAUUACCUGGUA [C6A G21C] | 0.364
26 | GACCUCUUUCACGUGCGCGUGAAAGAGAGAAGUGAACCAGAGAAACACACGUUGUGGUAUAUUACCUGGUG [U2A A71G] | 0.405
27 | GCCCUCUUUCACGUGCGCGUGAAAGAGAGAAGUGAACCAGAGAAACACAUGUUGUGGUAUAUUACCUGGUA [U2C C50U] | 0.252
28 | GUCCUCUUUCACGAGCGCGUGAAAGAGAGAAGUGAACCAGAGAAACACACGUUGUGCUAUAUUACCUGGUA [U14A G57C] | 0.132
29 | GUCCUCUUUCACGUGCGCGUGAAAGAGAGAAGUGAACCAGAGAAACACACGUUGUGGAAUAUCACCUGGUA [U58A U63C] | 0.307
30 | GUCCUCAUUCACGUGCGUGUGAAAGAGAGAAGUGAACCAGAGAAACACACGUUGUGGUAUAUUACCUGGUA [U7A C18U] | 0.8
31 | GUCCUCUUUUACGUGCUCGUGAAAGAGAGAAGUGAACCAGAGAAACACACGUUGUGGUAUAUUACCUGGUA [C10U G17U] | 0.665
32 | GUCCUCGUUCACAUGCGCGUGAAAGAGAGAAGUGAACCAGAGAAACACACGUUGUGGUAUAUUACCUGGUA [U7G G13A] | 0.704
33 | GUCCUCUUUCACGUACGCGUGAAAGAGAGAAGUGAACCAGAGAAACACACGUUGUGGUAUAUGACCUGGUA [G15A U63G] | 0.0686
34 | GUCCUCUUUCACGUGUGCGUGAAAGAGAGAAGUGAACCAGAGAAACACACGUUGUGGUAUAUUACCGGGUA [C16U U67G] | 0.367
35 | GUCCUCUGUCACGUGCGCGUGAAAGAGAGAAGUGAACCAGAGAAACACACGUAGUGGUAUAUUACCUGGUA [U8G U53A] | 0.567
36 | GUCCUCUUUCACGUGCGCGUGAAAGAGAGAAGUGAACCAGAAAAACACGCGUUGUGGUAUAUUACCUGGUA [G42A A49G] | 0.118
37 | GUCCUCUUUCACGUGCGCGUGAAAGAGAGAAGUGAAGGAGAGAAACACACGUUGUGGUAUAUUACCUGGUA [C37G C38G] | 0.0384
38 | GUCCUCUUUCACGUGCGCGUGAAAGAGAGAAGUGAACGAGAGAAACACACGUUGUUGUAUAUUACCUGGUA [C38G G56U] | 0.0935
